We go through five variants from publication PMC7954794 (2021).

B1: S. cerevisiae Abp1 (full length; SH3 domain 535-592 mutated) / Hua2 (parent complex)
chain 1: MALEPIDYTTHSREIDAEYLKIVRGSDPDTTWLIISPNAKKEYEPESTGSSFHDFLQLFDETKVQYGLARVSPPGSDVEKIIIIGWCPDSAPLKTRASFAANFAAVANNLFKGYHVQVTARDEDDLDENELLMKISNAAGARYSIQTSSKQQGKASTPPVKKSFTPSKSPAPVSKKEPVKTPSPAPAAKISSRVNDNNDDDDWNEPELKERDFDQAPLKPNQSSYKPIGKIDLQKVIAEEKAKEDPRLVQKPTAAGSKIDPSSDIANLKNESKLKRDSEFNSFLGTTKPPSMTESSLKNDDDKVIKGFRNEKSPAQLWAERKAKQNSGNAETKAEAPKPEVPEDEPEGEPDVKDLKSKFEGLAASEKEEEEMENKFAPPPKKSEPTIISPKPFSKPQEPVKAEEAEQPKTDYKKIGNPLPGMHIEADNEEEPEENDDDWDDDEDEAAQPPLPSRNVASGAPVQKEEPEQEEIAPSLPSRNSIPAPKQEEAPEQAPEEEIEEEAEEAAPQLPSRSSAAPPPPPRRATPEKKPKENPWATAEYDYDAAEDNELTFVENDKIINIEFVDDDWWLGELEKDGSKGLFPSNYVSLGN
chain 2: MQQTKFGKMYLDHDSVVEYSEDEIVEADRITLGYKKRLSMIENQMRHLLEDFSLDVQQIEPILADLQKYYDAFLQLLQKRNKSLQCKRSTHQPVPSPMNSQTSTNAKVNLSGKLMKFQLNSVQKFDEENILRILQNKIEFEHYFQIDKGKKQKVLLLAVYQCLNGPTRLHKVLNIEGIIHNNSIRTILGKQVSSSKWTVFLYDVKLVLLAHRQDVPNLETSKMIVRYGDLFPCALYFKDHTAY

This test covers variants of B1. Briefly: DHFR protein-fragment complementation in yeast (Abp1-DHFR F[1,2] x partner-DHFR F[3]), deep mutational scanning, second methotrexate selection vs reference; S. cerevisiae, DHFR-PCA selection in liquid with methotrexate at 30 C, two 72 h selections (the score uses the second); reference = the pre-selection culture.
On to chain 1 MALEPIDYTTHSREIDAEYLKIVRGSDPDTTWLIISPNAKKEYEPESTGSSFHDFLQLFDETKVQYGLARVSPPGSDVEKIIIIGWCPDSAPLKTRASFAANFAAVANNLFKGYHVQVTARDEDDLDENELLMKISNAAGARYSIQTSSKQQGKASTPPVKKSFTPSKSPAPVSKKEPVKTPSPAPAAKISSRVNDNNDDDDWNEPELKERDFDQAPLKPNQSSYKPIGKIDLQKVIAEEKAKEDPRLVQKPTAAGSKIDPSSDIANLKNESKLKRDSEFNSFLGTTKPPSMTESSLKNDDDKVIKGFRNEKSPAQLWAERKAKQNSGNAETKAEAPKPEVPEDEPEGEPDVKDLKSKFEGLAASEKEEEEMENKFAPPPKKSEPTIISPKPFSKPQEPVKAEEAEQPKTDYKKIGNPLPGMHIEADNEEEPEENDDDWDDDEDEAAQPPLPSRNVASGAPVQKEEPEQEEIAPSLPSRNSIPAPKQEEAPEQAPEEEIEEEAEEAAPQLPSRSSAAPPPPPRRATPEKKPKENPWATAEYDYDAAEKNELTFVENDKIINIEFVDDDWWLGELEKDGSKGLFPSNYVSLGN [chain 1 D548K], for which the screen value was -0.245 DMS score: mean over two replicates of log2(f_test/f_ref + 0.5)/ln 2, minus the synonymous-codon median (not a log2 …. For chain 1 MALEPIDYTTHSREIDAEYLKIVRGSDPDTTWLIISPNAKKEYEPESTGSSFHDFLQLFDETKVQYGLARVSPPGSDVEKIIIIGWCPDSAPLKTRASFAANFAAVANNLFKGYHVQVTARDEDDLDENELLMKISNAAGARYSIQTSSKQQGKASTPPVKKSFTPSKSPAPVSKKEPVKTPSPAPAAKISSRVNDNNDDDDWNEPELKERDFDQAPLKPNQSSYKPIGKIDLQKVIAEEKAKEDPRLVQKPTAAGSKIDPSSDIANLKNESKLKRDSEFNSFLGTTKPPSMTESSLKNDDDKVIKGFRNEKSPAQLWAERKAKQNSGNAETKAEAPKPEVPEDEPEGEPDVKDLKSKFEGLAASEKEEEEMENKFAPPPKKSEPTIISPKPFSKPQEPVKAEEAEQPKTDYKKIGNPLPGMHIEADNEEEPEENDDDWDDDEDEAAQPPLPSRNVASGAPVQKEEPEQEEIAPSLPSRNSIPAPKQEEAPEQAPEEEIEEEAEEAAPQLPSRSSAAPPPPPRRATPEKKPKENMWATAEYDYDAAEDNELTFVENDKIINIEFVDDDWWLGELEKDGSKGLFPSNYVSLGN [chain 1 P535M], the screen value was 1.02 DMS score: mean over two replicates of log2(f_test/f_ref + 0.5)/ln 2, minus the synonymous-codon median (not a log2 …. The same measure for chain 1 MALEPIDYTTHSREIDAEYLKIVRGSDPDTTWLIISPNAKKEYEPESTGSSFHDFLQLFDETKVQYGLARVSPPGSDVEKIIIIGWCPDSAPLKTRASFAANFAAVANNLFKGYHVQVTARDEDDLDENELLMKISNAAGARYSIQTSSKQQGKASTPPVKKSFTPSKSPAPVSKKEPVKTPSPAPAAKISSRVNDNNDDDDWNEPELKERDFDQAPLKPNQSSYKPIGKIDLQKVIAEEKAKEDPRLVQKPTAAGSKIDPSSDIANLKNESKLKRDSEFNSFLGTTKPPSMTESSLKNDDDKVIKGFRNEKSPAQLWAERKAKQNSGNAETKAEAPKPEVPEDEPEGEPDVKDLKSKFEGLAASEKEEEEMENKFAPPPKKSEPTIISPKPFSKPQEPVKAEEAEQPKTDYKKIGNPLPGMHIEADNEEEPEENDDDWDDDEDEAAQPPLPSRNVASGAPVQKEEPEQEEIAPSLPSRNSIPAPKQEEAPEQAPEEEIEEEAEEAAPQLPSRSSAAPPPPPRRATPEKKPKENPWATAEYDYDAAEDNELTFVENDKIINIEFVDDDWWWGELEKDGSKGLFPSNYVSLGN [chain 1 L571W]: -0.19 DMS score: mean over two replicates of log2(f_test/f_ref + 0.5)/ln 2, minus the synonymous-codon median (not a log2 …; for chain 1 MALEPIDYTTHSREIDAEYLKIVRGSDPDTTWLIISPNAKKEYEPESTGSSFHDFLQLFDETKVQYGLARVSPPGSDVEKIIIIGWCPDSAPLKTRASFAANFAAVANNLFKGYHVQVTARDEDDLDENELLMKISNAAGARYSIQTSSKQQGKASTPPVKKSFTPSKSPAPVSKKEPVKTPSPAPAAKISSRVNDNNDDDDWNEPELKERDFDQAPLKPNQSSYKPIGKIDLQKVIAEEKAKEDPRLVQKPTAAGSKIDPSSDIANLKNESKLKRDSEFNSFLGTTKPPSMTESSLKNDDDKVIKGFRNEKSPAQLWAERKAKQNSGNAETKAEAPKPEVPEDEPEGEPDVKDLKSKFEGLAASEKEEEEMENKFAPPPKKSEPTIISPKPFSKPQEPVKAEEAEQPKTDYKKIGNPLPGMHIEADNEEEPEENDDDWDDDEDEAAQPPLPSRNVASGAPVQKEEPEQEEIAPSLPSRNSIPAPKQEEAPEQAPEEEIEEEAEEAAPQLPSRSSAAPPPPPRRATPEKKPKENPWATAEYDYDAAEDNELTFVETDKIINIEFVDDDWWLGELEKDGSKGLFPSNYVSLGN [chain 1 N556T]: 0.279 DMS score: mean over two replicates of log2(f_test/f_ref + 0.5)/ln 2, minus the synonymous-codon median (not a log2 …; for chain 1 MALEPIDYTTHSREIDAEYLKIVRGSDPDTTWLIISPNAKKEYEPESTGSSFHDFLQLFDETKVQYGLARVSPPGSDVEKIIIIGWCPDSAPLKTRASFAANFAAVANNLFKGYHVQVTARDEDDLDENELLMKISNAAGARYSIQTSSKQQGKASTPPVKKSFTPSKSPAPVSKKEPVKTPSPAPAAKISSRVNDNNDDDDWNEPELKERDFDQAPLKPNQSSYKPIGKIDLQKVIAEEKAKEDPRLVQKPTAAGSKIDPSSDIANLKNESKLKRDSEFNSFLGTTKPPSMTESSLKNDDDKVIKGFRNEKSPAQLWAERKAKQNSGNAETKAEAPKPEVPEDEPEGEPDVKDLKSKFEGLAASEKEEEEMENKFAPPPKKSEPTIISPKPFSKPQEPVKAEEAEQPKTDYKKIGNPLPGMHIEADNEEEPEENDDDWDDDEDEAAQPPLPSRNVASGAPVQKEEPEQEEIAPSLPSRNSIPAPKQEEAPEQAPEEEIEEEAEEAAPQLPSRSSAAPPPPPRRATPEKKPKENPWATAEYDYDAAEDNELTFVENDKIINIEFVDDDWWLGELEKDGSKGYFPSNYVSLGN [chain 1 L582Y]: 0.369 DMS score: mean over two replicates of log2(f_test/f_ref + 0.5)/ln 2, minus the synonymous-codon median (not a log2 ….
